In the supplement of paper PMC9112550, “Optimization of the antimicrobial peptide Bac7 by deep mutational scanning” (BMC Biology, 2022):

System: Escherichia coli TOP10
Experiment: shrunken log2 fold change of peptide-encoding DNA abundance (4.5 h post-induction vs induction); higher = less antimicrobial activity (less host growth inhibition)
Settings: time post-induction: 4.5 h; library: site-saturation at positions 5, 18, 19, 20
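Further: peptides expressed intracellularly from a pBAD plasmid library in pooled LB shake-flask culture, induced with 0.3% L-arabinose, DNA abundance read by NGS, three biological replicates, DESeq2 with apeglm shrinkage.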

With RRIRPRPPRLPRPRPRPNPQPRP the “shrunken log2 fold change” value was -0.0414.
With RRIRERPPRLPRPRPRPTKLPRP the “shrunken log2 fold change” value was -0.0612.
RRIRWRPPRLPRPRPRPQHNPRP was tested, and the “shrunken log2 fold change” value was -0.537.
In the case of RRIRSRPPRLPRPRPRPWAFPRP, the “shrunken log2 fold change” value is reported as -0.072.
With RRIRMRPPRLPRPRPRPIFSPRP the “shrunken log2 fold change” value was 0.0637.
With RRIRDRPPRLPRPRPRPKFKPRP the “shrunken log2 fold change” value was -0.0689.
RRIRDRPPRLPRPRPRPAMQPRP was tested, and the “shrunken log2 fold change” value was 0.194.
RRIRMRPPRLPRPRPRPTALPRP was tested, and the “shrunken log2 fold change” value was 0.33.
For RRIRLRPPRLPRPRPRPRVWPRP, the “shrunken log2 fold change” value was 0.655.
With RRIRDRPPRLPRPRPRPKVSPRP the “shrunken log2 fold change” value was 0.036.
For RRIRGRPPRLPRPRPRPQAKPRP, the “shrunken log2 fold change” value was 1.34.
RRIRDRPPRLPRPRPRPTNCPRP was tested, and the “shrunken log2 fold change” value was -0.0515.
In the case of RRIRYRPPRLPRPRPRPVLYPRP, the “shrunken log2 fold change” value is reported as -0.0955.
For RRIRVRPPRLPRPRPRPHAAPRP, the “shrunken log2 fold change” value was 0.156.
In the case of RRIRGRPPRLPRPRPRPGRCPRP, the “shrunken log2 fold change” value is reported as 1.09.
In the case of RRIRDRPPRLPRPRPRPRTGPRP, the “shrunken log2 fold change” value is reported as 0.0132.
With RRIRERPPRLPRPRPRPALNPRP the “shrunken log2 fold change” value was 0.0441.
In the case of RRIRMRPPRLPRPRPRPVTKPRP, the “shrunken log2 fold change” value is reported as 0.253.
RRIRERPPRLPRPRPRPTCTPRP was tested, and the “shrunken log2 fold change” value was 0.199.
With RRIRPRPPRLPRPRPRPYAIPRP the “shrunken log2 fold change” value was -0.219.
In the case of RRIRERPPRLPRPRPRPMTNPRP, the “shrunken log2 fold change” value is reported as -0.112.
For RRIRCRPPRLPRPRPRPWIQPRP, the “shrunken log2 fold change” value was -0.000687.
In the case of RRIRSRPPRLPRPRPRPGKWPRP, the “shrunken log2 fold change” value is reported as -0.147.
RRIRMRPPRLPRPRPRPSLWPRP was tested, and the “shrunken log2 fold change” value was 1.72.
For RRIRCRPPRLPRPRPRPWFSPRP, the “shrunken log2 fold change” value was -0.208.
For RRIRTRPPRLPRPRPRPKRSPRP, the “shrunken log2 fold change” value was 0.207.
For RRIRIRPPRLPRPRPRPYISPRP, the “shrunken log2 fold change” value was -0.0173.
RRIRWRPPRLPRPRPRPWNWPRP was tested, and the “shrunken log2 fold change” value was 0.173.
For RRIRWRPPRLPRPRPRPAYYPRP, the “shrunken log2 fold change” value was -0.157.
With RRIRWRPPRLPRPRPRPRETPRP the “shrunken log2 fold change” value was 0.936.
RRIRMRPPRLPRPRPRPNKVPRP was tested, and the “shrunken log2 fold change” value was 0.0418.
RRIRKRPPRLPRPRPRPRVRPRP was tested, and the “shrunken log2 fold change” value was 0.755.
For RRIRCRPPRLPRPRPRPGFIPRP, the “shrunken log2 fold change” value was 0.067.
For RRIRTRPPRLPRPRPRPNTNPRP, the “shrunken log2 fold change” value was -0.556.
In the case of RRIRKRPPRLPRPRPRPYFDPRP, the “shrunken log2 fold change” value is reported as -0.383.
RRIRCRPPRLPRPRPRPKSFPRP was tested, and the “shrunken log2 fold change” value was -0.288.
With RRIRTRPPRLPRPRPRPMPHPRP the “shrunken log2 fold change” value was 0.182.
RRIRGRPPRLPRPRPRPAKTPRP was tested, and the “shrunken log2 fold change” value was 0.121.
RRIRTRPPRLPRPRPRPAFTPRP was tested, and the “shrunken log2 fold change” value was 0.0137.
For RRIRYRPPRLPRPRPRPMYYPRP, the “shrunken log2 fold change” value was -0.269.
In the case of RRIRHRPPRLPRPRPRPQMYPRP, the “shrunken log2 fold change” value is reported as -0.0219.
RRIRYRPPRLPRPRPRPIWDPRP was tested, and the “shrunken log2 fold change” value was -0.13.
In the case of RRIRCRPPRLPRPRPRPMPTPRP, the “shrunken log2 fold change” value is reported as 0.592.
RRIRTRPPRLPRPRPRPREKPRP was tested, and the “shrunken log2 fold change” value was -0.00088.
RRIRYRPPRLPRPRPRPDIIPRP was tested, and the “shrunken log2 fold change” value was -0.609.
In the case of RRIRVRPPRLPRPRPRPVYIPRP, the “shrunken log2 fold change” value is reported as -0.363.
With RRIRYRPPRLPRPRPRPLVMPRP the “shrunken log2 fold change” value was -0.372.
For RRIRRRPPRLPRPRPRPRVEPRP, the “shrunken log2 fold change” value was 0.662.
RRIRQRPPRLPRPRPRPKDNPRP was tested, and the “shrunken log2 fold change” value was -0.23.
In the case of RRIRPRPPRLPRPRPRPPVDPRP, the “shrunken log2 fold change” value is reported as 0.52.
RRIRARPPRLPRPRPRPTACPRP was tested, and the “shrunken log2 fold change” value was 0.405.
For RRIRFRPPRLPRPRPRPRPVPRP, the “shrunken log2 fold change” value was 0.633.
With RRIRIRPPRLPRPRPRPFRPPRP the “shrunken log2 fold change” value was 0.023.
In the case of RRIRSRPPRLPRPRPRPNYVPRP, the “shrunken log2 fold change” value is reported as -0.906.
For RRIRKRPPRLPRPRPRPFCVPRP, the “shrunken log2 fold change” value was 0.706.
For RRIRSRPPRLPRPRPRPDPLPRP, the “shrunken log2 fold change” value was 0.0174.
With RRIRGRPPRLPRPRPRPLLNPRP the “shrunken log2 fold change” value was 0.76.
For RRIRKRPPRLPRPRPRPCQAPRP, the “shrunken log2 fold change” value was 0.157.
With RRIRQRPPRLPRPRPRPMFTPRP the “shrunken log2 fold change” value was -0.31.
For RRIRMRPPRLPRPRPRPAPRPRP, the “shrunken log2 fold change” value was 1.72.
In the case of RRIRRRPPRLPRPRPRPDPIPRP, the “shrunken log2 fold change” value is reported as 0.227.
RRIRCRPPRLPRPRPRPNHWPRP was tested, and the “shrunken log2 fold change” value was -0.0209.
With RRIRQRPPRLPRPRPRPDCMPRP the “shrunken log2 fold change” value was 0.00805.
RRIRMRPPRLPRPRPRPQMMPRP was tested, and the “shrunken log2 fold change” value was 0.443.
For RRIRNRPPRLPRPRPRPSTCPRP, the “shrunken log2 fold change” value was -0.186.
RRIRERPPRLPRPRPRPLALPRP was tested, and the “shrunken log2 fold change” value was -0.265.
For RRIRIRPPRLPRPRPRPNYDPRP, the “shrunken log2 fold change” value was -0.638.
With RRIRWRPPRLPRPRPRPHHKPRP the “shrunken log2 fold change” value was -0.23.
In the case of RRIRRRPPRLPRPRPRPHLSPRP, the “shrunken log2 fold change” value is reported as 0.112.
RRIRYRPPRLPRPRPRPGIHPRP was tested, and the “shrunken log2 fold change” value was -0.467.
For RRIRWRPPRLPRPRPRPWFNPRP, the “shrunken log2 fold change” value was -0.248.
In the case of RRIRARPPRLPRPRPRPFGTPRP, the “shrunken log2 fold change” value is reported as -0.194.
With RRIRTRPPRLPRPRPRPTGCPRP the “shrunken log2 fold change” value was -0.388.
For RRIRRRPPRLPRPRPRPVVIPRP, the “shrunken log2 fold change” value was 0.0625.
In the case of RRIRCRPPRLPRPRPRPRWIPRP, the “shrunken log2 fold change” value is reported as 0.0454.
With RRIRARPPRLPRPRPRPAHEPRP the “shrunken log2 fold change” value was 0.128.
RRIRARPPRLPRPRPRPFVIPRP was tested, and the “shrunken log2 fold change” value was 0.0345.
With RRIRWRPPRLPRPRPRPMYNPRP the “shrunken log2 fold change” value was -0.387.
RRIRVRPPRLPRPRPRPAFVPRP was tested, and the “shrunken log2 fold change” value was 0.00544.
For RRIRPRPPRLPRPRPRPQLHPRP, the “shrunken log2 fold change” value was -0.0604.
With RRIRNRPPRLPRPRPRPMGSPRP the “shrunken log2 fold change” value was -0.01.
With RRIRFRPPRLPRPRPRPCHNPRP the “shrunken log2 fold change” value was -0.0447.
In the case of RRIRPRPPRLPRPRPRPYPGPRP, the “shrunken log2 fold change” value is reported as -0.159.
In the case of RRIRNRPPRLPRPRPRPFAIPRP, the “shrunken log2 fold change” value is reported as -0.0909.
RRIRNRPPRLPRPRPRPVQFPRP was tested, and the “shrunken log2 fold change” value was -0.124.
For RRIRCRPPRLPRPRPRPDFAPRP, the “shrunken log2 fold change” value was 0.115.
RRIRIRPPRLPRPRPRPRMGPRP was tested, and the “shrunken log2 fold change” value was -0.192.
In the case of RRIRMRPPRLPRPRPRPGAMPRP, the “shrunken log2 fold change” value is reported as 0.609.
In the case of RRIRQRPPRLPRPRPRPAAYPRP, the “shrunken log2 fold change” value is reported as -0.169.
With RRIRKRPPRLPRPRPRPWWAPRP the “shrunken log2 fold change” value was -0.287.
With RRIRTRPPRLPRPRPRPIEHPRP the “shrunken log2 fold change” value was 0.0859.
For RRIRPRPPRLPRPRPRPHCYPRP, the “shrunken log2 fold change” value was -0.2.
RRIRRRPPRLPRPRPRPLHIPRP was tested, and the “shrunken log2 fold change” value was 0.212.
In the case of RRIRMRPPRLPRPRPRPCHYPRP, the “shrunken log2 fold change” value is reported as -0.112.
For RRIRHRPPRLPRPRPRPFNIPRP, the “shrunken log2 fold change” value was 0.0518.
In the case of RRIRWRPPRLPRPRPRPWWAPRP, the “shrunken log2 fold change” value is reported as -0.194.
In the case of RRIRKRPPRLPRPRPRPCFDPRP, the “shrunken log2 fold change” value is reported as 0.0357.
RRIRDRPPRLPRPRPRPTFPPRP was tested, and the “shrunken log2 fold change” value was 0.0873.
With RRIRPRPPRLPRPRPRPNTTPRP the “shrunken log2 fold change” value was -0.131.
RRIRTRPPRLPRPRPRPTFCPRP was tested, and the “shrunken log2 fold change” value was 0.147.
RRIRGRPPRLPRPRPRPNYAPRP was tested, and the “shrunken log2 fold change” value was 0.0408.
For RRIRIRPPRLPRPRPRPAVAPRP, the “shrunken log2 fold change” value was 0.0259.
With RRIRSRPPRLPRPRPRPNMQPRP the “shrunken log2 fold change” value was -0.0719.
RRIRSRPPRLPRPRPRPHPDPRP was tested, and the “shrunken log2 fold change” value was -0.0132.
RRIRYRPPRLPRPRPRPMSNPRP was tested, and the “shrunken log2 fold change” value was -0.709.
RRIRKRPPRLPRPRPRPGYNPRP was tested, and the “shrunken log2 fold change” value was 0.178.
For RRIRMRPPRLPRPRPRPQQEPRP, the “shrunken log2 fold change” value was 0.137.
In the case of RRIRPRPPRLPRPRPRPWLYPRP, the “shrunken log2 fold change” value is reported as -0.0765.
In the case of RRIRVRPPRLPRPRPRPDSDPRP, the “shrunken log2 fold change” value is reported as -0.0912.
RRIRSRPPRLPRPRPRPWLHPRP was tested, and the “shrunken log2 fold change” value was -0.254.
With RRIRCRPPRLPRPRPRPDATPRP the “shrunken log2 fold change” value was 1.31.
In the case of RRIRKRPPRLPRPRPRPWGGPRP, the “shrunken log2 fold change” value is reported as 0.407.
For RRIRTRPPRLPRPRPRPDRTPRP, the “shrunken log2 fold change” value was -0.442.
RRIRFRPPRLPRPRPRPLRKPRP was tested, and the “shrunken log2 fold change” value was 0.465.
RRIRKRPPRLPRPRPRPNDSPRP was tested, and the “shrunken log2 fold change” value was -0.042.
RRIRGRPPRLPRPRPRPAMGPRP was tested, and the “shrunken log2 fold change” value was 0.541.
RRIRSRPPRLPRPRPRPCGWPRP was tested, and the “shrunken log2 fold change” value was 0.148.
For RRIRQRPPRLPRPRPRPGFTPRP, the “shrunken log2 fold change” value was -0.11.
For RRIRKRPPRLPRPRPRPWKRPRP, the “shrunken log2 fold change” value was 0.024.
For RRIRMRPPRLPRPRPRPMQTPRP, the “shrunken log2 fold change” value was -0.00202.
In the case of RRIRYRPPRLPRPRPRPDPPPRP, the “shrunken log2 fold change” value is reported as 0.0918.
RRIRNRPPRLPRPRPRPNHMPRP was tested, and the “shrunken log2 fold change” value was -0.16.
RRIRDRPPRLPRPRPRPPERPRP was tested, and the “shrunken log2 fold change” value was 0.0665.
RRIRMRPPRLPRPRPRPEFGPRP was tested, and the “shrunken log2 fold change” value was 1.22.
RRIRARPPRLPRPRPRPDGLPRP was tested, and the “shrunken log2 fold change” value was 0.292.
